Tests used:
Experiment in all cases: BLI
[1] = target: Gly2-1-F2
[2] = target: Gly1-2-D4
[3] = target: Gly3-2-C1
[4] = target: TEA1-E8

B1: MSLN (other)
chain: EVEKTACPSGKKAREIDESLIFYKKWELEACVDAALLATQMDRVNAIPFTYEQLDVLKHKLDELYPQGYPESVIQHLGYLFLKMSPEDIRKWNVTSLETLKALLEVNKGHEMSPQVATLIDRFVKGRGQLDKDTLDTLTAFYPGYLCSLSPEELSSVPPSSIWAVRPQDLDTCDPRQLDVLYPKARLAFQNMNGSEYFVKIQSFLGGAPTEDLKALSQQNVSMDLATFMKLRTDAVLPLTVAEVQKLLGPHVEGLKAEERHRPVRDWILRQRQDDLDTLGLGLQG
B1 was tested, and the Kd [1] was < 1 pM, the Kd [2] was 4.46 nM and the Kd [3] was 4.88 nM. It also gave a Kd [4] of 0.166 nM.

Source: patent publication US20250255902A1 (published 2025)
